Experimental findings from doi:10.1101/2025.09.15.676363 are described below.

The target of assay [1] is Full-length I175D Pcad fused to a C-terminal mCherry tag (human). Briefly: co-IP.
The target of assay [2] is Full-length W2A Pcad fused to a C-terminal mCherry tag (human). Description: co-IP.
In assay [3] the target is WT-Dsg2, complete extracellular region (EC1-5) of human desmoglein-2 (human) (UniProt Q14126). Description: single-molecule AFM binding assay.
Assay [4] addresses W2A-Dsg2, complete extracellular region (EC1-5) of human desmoglein-2 (human) (UniProt Q14126). Description: single-molecule AFM binding assay.

As to “Desmoglein-2 (Dsg2), endogenous in A431 cells (from UniProt Q14126 50-1118) (natural protein)”, the Dsg2 binding capacity relative to WT-Pcad (Dsg2/Pcad pull-down ratio) in assay [1] amounted to 80%; in assay [2], 25%. Turning to “A5P-Pcad, complete ectodomain of human P-cadherin (from UniProt P22223 25-654) (domain or fragment)”, in assay [3], the binding probability stood at 4.5%. Still for that read-out and setting: with “I175D-Pcad, complete extracellular region (EC1-5) of human P-cadherin (from UniProt P22223 25-654) (domain or fragment)” the figure was 7.8%. Still for that read-out and setting: with “W2A-Pcad, complete extracellular region (EC1-5) of human P-cadherin (from UniProt P22223 25-654) (domain or fragment)” the figure was 4%.

“WT-Pcad, complete extracellular region (EC1-5) of human P-cadherin (from UniProt P22223 25-654) (domain or fragment)”: the binding probability amounted to 4% in assay [4] and 8% in assay [3].
